Measured values reported in patent US20220288204A1, “DOSAGE AND ADMINISTRATION OF ANTI-ERBB3 (HER3) MONOCLONAL ANTIBODIES TO TREAT TUMORS ASSOCIATED WITH NEUREGULIN 1 (NRG1) GENE FUSIONS” (ELEVATION ONCOLOGY, INC., priority 2021, published 2022).

Assays:
[1] = test system: HER2, HER3, EGFR and downstream effectors in HCC-95 cells; assay: Western blotting of protein phosphorylation; type: cell-based, human
From the text: These events likely culminate in inhibition of growth and impaired survival.

[2] = test system: HER3 and AKT phosphorylation in H6c7-ATP1B1-NRG1 cells; assay: Western blotting of HER3 and AKT phosphorylation; type: cell-based, human; conditions: serum-starved 24 hours
From the text: (§1) H6C7-EV (empty vector) and H6C7-ATP1B1-NRG1 cells were profiled for activated intracellular kinases using phospho-proteomic arrays (FIG. 7A). H6C7-EV and H6C7 cells with the indicated NRG1 fusions were profiled for activated receptor tyrosine kinases (RTK) using phospho-RTK arrays (FIG. 7B). Quantitation of phosphorylated EGFR, HER2, and HER3 is shown (FIG. 7C). Western blot analysis of cell extracts from H6C7-EV and H6C7 cells expressing NRG1 fusions (FIGS. 7D-E). […] All cells were serum-started for 24 hours prior to experimentation.
(§2) Models of isogenic pancreatic cancer cells with NRG1 fusions by lentiviral-mediated cDNA expression of ATP1B1-NRG1 and SLC3A2-NRG1 fusions in immortalized human pancreatic ductal cells (H6c7) were developed. […] Western blotting analysis was used to evaluate protein phosphorylation and expression. The presence of NRG1 fusions was confirmed by reverse transcription polymerase chain reaction (RT-PCR) and next-generation sequencing (NGS).
(§3) There was no regression of afatinib-treated pancreatic PDX tumors. […] This was confirmed using a human-specific GAPH antibody.

[3] = test system: HER3 and AKT phosphorylation in H6c7-SLC3A2-NRG1 cells; assay: Western blotting of HER3 and AKT phosphorylation; type: cell-based, human; conditions: serum-starved 24 hours
From the text: as §1, §2, §3

CTG-0943 PDX tumors = assay: Pancreatic adenocarcinoma PDX model (APP-NRG1); type: in vivo, mice
Procedure: Mice bearing CTG-0943 PDX tumors (5-8 mice per group) were treated with indicated agents (FIG. 8A). Representative H&E-stained slides of a vehicle-treated tumor (FIG. 8B). Tumor volume, results represent the mean±SEM. […] Change in the volume of individual tumors (vehicle: day 20; treated groups: day 31) compared with day 0(%) (FIG. 8D). Western blot analysis of vehicle, and afatinib and seribantumab-treated tumors. Tumor residues extracted day 24 for vehicle-, day 31 for seribantumab-, and day 32 for afatinib-treated groups. Antibody reactivity with human (H) and/or mouse (M) proteins is indicated.
as §2, §3

CH-17-0068 PDX tumors = assay: Intrahepatic cholangiocarcinoma PDX model (RBPMS-NRG1); type: in vivo, mice; conditions: monotherapy seribantumab 5 mg and 10 mg per dose BIW vs afatinib 5 mg/kg QD
Procedure: Representative H&E-stained CH-17-0068 PDX tumor (FIG. 9A). Genomic alterations identified by RNAseq and corresponding investigational targeted therapies (FIG. 9B). […] Afatinib (5 mg/kg QD) or AG-120 (isocitrate dehydrogenase [IDH] inhibitor, 150 mg/kg twice daily [BID]) were then added to the indicated groups. Results represent the mean±SEM. Change in the volume of individual tumors on day 30 (FIG. 9D) or at the end of the study (FIG. 9E).
as §2

[4] = test system: KRAS wt pancreatic ductal adenocarcinoma with ATP1B1-NRG1 gene fusion; assay: Compassionate access case, MoST program; type: in vivo, human
Procedure: FIGS. 10A-10B are representative computed tomography (CT) images of a liver metastasis in a patient with KRAS WT pancreatic cancer that harbors an ATP1B1-NRG1 gene fusion. The patient was treated with seribantumab.
In brief, patients with advanced solid tumors of any histology undergo molecular screening. Genomic alterations are reviewed at molecular tumor boards to identify appropriate biomarker-matched therapeutic sub-studies. Seven GI cancer patients with durable clinical benefit were identified by case review, including a patient with KRAS WT pancreatic cancer harboring an ATP1B1-NRG1 gene fusion. Neuregulin 1 (NRG1) gene fusion proteins are an important oncogenic driver, enriched amongst KRAS wild-type PDAC (8-10%) (Aguirre A J., Clin. Cancer Res. 2019 August; 25(15)). NRG1 is the predominant ligand of ERBB3. These fusion proteins drive tumor progression through aberrant ERBB3 activation. […] The patient had previously exhausted available therapies and had been treated as follows: (1) October 2019 to January 2020, FOLFIRINOX, (2) January 2020 to June 2020, FOLFIRI, (3) June 2020 to August 2020, Gemcitabine/Abraxane, (4) August 2020 to December 2020, FOLFIRI.

[5] = 5 mg or 10 mg twice weekly seribantumab

B1: seribantumab: anti-ERBB3 (HER3) fully human monoclonal antibody; heavy and light chains SEQ ID NOs: 12 and 13 (antibody)
heavy: EVQLLESGGGLVQPGGSLRLSCAASGFTFSHYVMAWVRQAPGKGLEWVSSISSSGGWTLYADSVKGRFTISRDNSKNTLYLQMNSLRAEDTAVYYCTRGLKMATIFDYWGQGTLVTVSSASTKGPSVFPLAPCSRSTSESTAALGCLVKDYFPEPVTVSWNSGALTSGVHTFPAVLQSSGLYSLSSVVTVPSSNFGTQTYTCNVDHKPSNTKVDKTVERKCCVECPPCPAPPVAGPSVFLFPPKPKDTLMISRTPEVTCVVVDVSHEDPEVQFNWYVDGVEVHNAKTKPREEQFNSTFRVVSVLTVVHQDWLNGKEYKCKVSNKGLPAPIEKTISKTKGQPREPQVYTLPPSREEMTKNQVSLTCLVKGFYPSDIAVEWESNGQPENNYKTTPPMLDSDGSFFLYSKLTVDKSRWQQGNVFSCSVMHEALHNHYTQKSLSLSPGK
light: QSALTQPASVSGSPGQSITISCTGTSSDVGSYNVVSWYQQHPGKAPKLIIYEVSQRPSGVSNRFSGSKSGNTASLTISGLQTEDEADYYCCSYAGSSIFVIFGGGTKVTVLGQPKAAPSVTLFPPSSEELQANKATLVCLVSDFYPGAVTVAWKADGSPVKVGVETTKPSKQSNNKYAASSYLSLTPEQWKSHRSYSCRVTHEGSTVEKTVAPAECS
EGFR phosphorylation [1]: little effect
phosphorylation of HER2, HER3, and downstream effectors [1]: inhibited phosphorylation
HER3 and AKT phosphorylation [2]: dose-dependent inhibition
HER3 and AKT phosphorylation [3]: dose-dependent inhibition
tumor growth (CTG-0943 PDX tumors; [5]): Tumor growth inhibition was observed
tumor shrinkage (CTG-0943 PDX tumors; [5]): up to 55%
tumor shrinkage, range (CTG-0943 PDX tumors; [5]): 23-77%
proteins in residual tumors by Western blotting (CTG-0943 PDX tumors; seribantumab-treated tumors, end of study (day 31)): Loss of phosphorylated and total EGFR, HER2 and HER3, cyclin D1
efficacy compared with afatinib (CTG-0943 PDX tumors; two doses of seribantumab vs afatinib 5 mg/kg QD): more effective than afatinib
efficacy compared with afatinib (CH-17-0068 PDX tumors): equally effective as afatinib
liver metastasis NTL1 liver seg 8 on CT ([4]; June 2021, 26×26 mm before seribantumab): resolved
duration of ongoing treatment at data cutoff ([4]; one patient): ≥ 8 months
tumor response ([4]; person, treated from December 2020): partial response
